These results are taken from paper PMC12990809.

What all share (experiment): pulldown
Settings in all cases: 20 nM protein, 1.5 uM RNA pool; 20 mM HEPES pH 7.8, 70 mM KCl, 10 mM NaCl, 10% glycerol, 2 mM DTT, 0.1 ug/uL BSA; 30 min, 4 C

The target of data set [1] is T1, mei2 (Schizosaccharomyces pombe) (UniProt P08965).
T1 sequence: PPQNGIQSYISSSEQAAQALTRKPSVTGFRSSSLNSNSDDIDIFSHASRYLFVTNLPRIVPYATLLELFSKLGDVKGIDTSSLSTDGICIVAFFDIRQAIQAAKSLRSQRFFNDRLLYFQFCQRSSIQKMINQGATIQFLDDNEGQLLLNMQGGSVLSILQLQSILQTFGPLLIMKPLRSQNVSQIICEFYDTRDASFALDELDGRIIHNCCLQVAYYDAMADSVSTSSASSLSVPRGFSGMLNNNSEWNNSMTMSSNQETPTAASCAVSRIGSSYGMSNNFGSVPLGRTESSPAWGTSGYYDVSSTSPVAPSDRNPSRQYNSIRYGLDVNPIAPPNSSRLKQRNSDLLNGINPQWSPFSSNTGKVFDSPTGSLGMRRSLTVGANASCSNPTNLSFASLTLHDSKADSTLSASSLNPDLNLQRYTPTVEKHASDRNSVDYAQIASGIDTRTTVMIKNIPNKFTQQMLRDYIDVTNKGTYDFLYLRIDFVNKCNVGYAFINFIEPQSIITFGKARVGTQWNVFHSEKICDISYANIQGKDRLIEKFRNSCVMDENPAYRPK

Data set [2] deals with T2, PK25912.1 V2I;D3L;F4R (Cannabis sativa) (UniProt A0A803Q7P0).
T2 sequence: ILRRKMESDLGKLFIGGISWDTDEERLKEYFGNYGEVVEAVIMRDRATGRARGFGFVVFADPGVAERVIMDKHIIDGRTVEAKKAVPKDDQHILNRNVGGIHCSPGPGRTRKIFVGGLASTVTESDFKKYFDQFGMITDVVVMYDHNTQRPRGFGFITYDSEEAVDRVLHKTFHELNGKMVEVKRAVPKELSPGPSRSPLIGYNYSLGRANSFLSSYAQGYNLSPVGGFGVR

The target in data set [3] is T3, PK11774.1 (Cannabis sativa) (UniProt A0A7J6FQM5).
T3 sequence: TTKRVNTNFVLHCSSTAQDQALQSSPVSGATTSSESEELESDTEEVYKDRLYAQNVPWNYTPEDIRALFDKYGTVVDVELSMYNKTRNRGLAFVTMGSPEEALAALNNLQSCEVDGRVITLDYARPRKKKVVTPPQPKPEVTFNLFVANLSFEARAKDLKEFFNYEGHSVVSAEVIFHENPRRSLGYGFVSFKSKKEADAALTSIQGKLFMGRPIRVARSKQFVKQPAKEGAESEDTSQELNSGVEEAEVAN

Data set [4] concerns the target u2af2b (Danio rerio) (UniProt A0ACM8Q3Q6).
Data set [5] concerns the target T4, Y57G11C.36 (Caenorhabditis elegans) (UniProt Q8I4C4).
T4 sequence: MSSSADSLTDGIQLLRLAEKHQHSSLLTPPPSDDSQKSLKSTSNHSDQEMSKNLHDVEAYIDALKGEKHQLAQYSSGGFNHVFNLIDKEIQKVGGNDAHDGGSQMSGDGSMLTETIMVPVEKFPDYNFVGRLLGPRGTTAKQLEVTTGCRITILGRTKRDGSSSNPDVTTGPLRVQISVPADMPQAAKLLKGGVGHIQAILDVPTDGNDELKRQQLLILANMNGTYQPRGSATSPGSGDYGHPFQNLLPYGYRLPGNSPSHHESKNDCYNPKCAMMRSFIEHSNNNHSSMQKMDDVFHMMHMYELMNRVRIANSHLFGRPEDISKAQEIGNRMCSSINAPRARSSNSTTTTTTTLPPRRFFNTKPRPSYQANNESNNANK

In data set [6] the target is T5, nrd1 (Schizosaccharomyces pombe) (UniProt Q09702).
T5 sequence: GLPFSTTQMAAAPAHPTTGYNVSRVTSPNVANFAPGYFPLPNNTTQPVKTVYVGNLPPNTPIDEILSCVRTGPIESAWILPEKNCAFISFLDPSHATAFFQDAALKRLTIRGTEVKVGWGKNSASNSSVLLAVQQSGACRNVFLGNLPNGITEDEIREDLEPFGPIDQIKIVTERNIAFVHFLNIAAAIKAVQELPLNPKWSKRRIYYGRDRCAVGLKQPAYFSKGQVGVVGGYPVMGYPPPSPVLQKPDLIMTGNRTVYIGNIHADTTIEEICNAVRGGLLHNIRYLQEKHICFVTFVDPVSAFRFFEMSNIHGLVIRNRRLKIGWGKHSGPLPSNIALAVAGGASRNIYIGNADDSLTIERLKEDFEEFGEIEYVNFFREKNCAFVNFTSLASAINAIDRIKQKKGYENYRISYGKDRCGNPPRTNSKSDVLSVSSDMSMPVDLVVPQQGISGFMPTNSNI

Data set [7] has as its target T6, nop12 (Schizosaccharomyces pombe) (UniProt O13741).
T6 sequence: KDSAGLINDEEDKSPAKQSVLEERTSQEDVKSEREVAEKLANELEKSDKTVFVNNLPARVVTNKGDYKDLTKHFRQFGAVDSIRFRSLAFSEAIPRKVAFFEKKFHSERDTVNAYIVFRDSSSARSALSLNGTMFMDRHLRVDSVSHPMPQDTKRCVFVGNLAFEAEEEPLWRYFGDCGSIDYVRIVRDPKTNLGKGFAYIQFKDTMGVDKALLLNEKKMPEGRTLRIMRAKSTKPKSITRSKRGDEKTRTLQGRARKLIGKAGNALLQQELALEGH

In data set [8] the target is T7, MBNL2 (Homo sapiens) (UniProt Q5VZF2).
T7 sequence: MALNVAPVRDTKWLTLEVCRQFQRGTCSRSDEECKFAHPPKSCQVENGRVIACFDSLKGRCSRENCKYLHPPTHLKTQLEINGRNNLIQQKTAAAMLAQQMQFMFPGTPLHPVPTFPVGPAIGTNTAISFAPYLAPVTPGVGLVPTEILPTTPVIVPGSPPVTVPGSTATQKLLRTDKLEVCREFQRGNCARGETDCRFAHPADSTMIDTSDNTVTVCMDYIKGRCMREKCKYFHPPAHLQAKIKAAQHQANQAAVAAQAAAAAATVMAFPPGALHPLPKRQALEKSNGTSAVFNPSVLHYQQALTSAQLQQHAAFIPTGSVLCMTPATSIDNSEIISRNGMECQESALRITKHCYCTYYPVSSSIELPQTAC

The target in data set [9] is T8, DDB_G0270634 (Dictyostelium discoideum) (UniProt Q55D63).
T8 sequence: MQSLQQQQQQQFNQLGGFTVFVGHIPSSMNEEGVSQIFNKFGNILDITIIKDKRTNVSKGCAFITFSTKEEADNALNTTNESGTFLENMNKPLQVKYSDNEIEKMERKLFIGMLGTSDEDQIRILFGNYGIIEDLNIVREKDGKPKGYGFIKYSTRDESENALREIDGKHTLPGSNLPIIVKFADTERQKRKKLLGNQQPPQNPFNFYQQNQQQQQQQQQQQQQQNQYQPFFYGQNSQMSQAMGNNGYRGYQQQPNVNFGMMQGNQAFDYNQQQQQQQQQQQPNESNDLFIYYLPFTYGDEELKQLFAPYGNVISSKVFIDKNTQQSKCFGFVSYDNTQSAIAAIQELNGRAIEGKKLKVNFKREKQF

u2af2b (Danio rerio), sequence (A0ACM8Q3Q6 entry or part of it): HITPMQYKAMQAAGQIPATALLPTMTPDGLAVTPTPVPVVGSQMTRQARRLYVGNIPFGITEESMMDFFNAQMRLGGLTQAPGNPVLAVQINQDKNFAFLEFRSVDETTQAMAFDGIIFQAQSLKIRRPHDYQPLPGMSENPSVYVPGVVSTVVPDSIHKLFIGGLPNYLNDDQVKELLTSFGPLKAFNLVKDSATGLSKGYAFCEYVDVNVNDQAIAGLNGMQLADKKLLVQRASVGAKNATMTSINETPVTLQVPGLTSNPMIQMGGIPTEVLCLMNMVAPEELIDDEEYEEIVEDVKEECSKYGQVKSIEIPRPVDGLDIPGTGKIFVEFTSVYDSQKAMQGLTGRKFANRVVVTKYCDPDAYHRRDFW

In [1], UUUUUUG [RNAcompete motif RNCMPT00413] yielded a binding signal (z-score (mean of top ten 7-mers)) of 14.2.

As for UAGGAA [RNAcompete motif RNCMPT00430], the binding signal (z-score (mean of top ten 7-mers)) in [2] was found to be 8.55. Substance UGGAGNG [RNAcompete motif RNCMPT00403] showed a binding signal (z-score (mean of top ten 7-mers)) in data set [3] of 10.9. Consider UUUUUC [RNAcompete motif RNCMPT00418], for which the binding signal (z-score (mean of top ten 7-mers)) in data set [4] was 14.4.

With CUACUAG [RNAcompete motif RNCMPT00423], the binding signal (z-score (mean of top ten 7-mers)) in data set [5] was 15.3.

In data set [6], UUUUUUC [RNAcompete motif RNCMPT00414] returned a binding signal (z-score (mean of top ten 7-mers)) of 11.9. GAACG [RNAcompete motif RNCMPT00412] displayed a binding signal (z-score (mean of top ten 7-mers)) in data set [7] of 25.9. In data set [8], GCUUGC [RNAcompete motif RNCMPT00401] yielded a binding signal (z-score (mean of top ten 7-mers)) of 10.7.

In turn, UUUUUGU [RNAcompete motif RNCMPT00399] returned a binding signal (z-score (mean of top ten 7-mers)) in [9] of 8.63.
